Test results published in US10119980B2, “Method for detection of basic peptide and reagent for detection of basic peptide” (SYSMEX CORPORATION, priority 2009, dated 2018).
Values belong to the molecule of their own block, whether it stands above or below them. Ends that are not written are not given here.

Columns and labels:
heat-denatured BSA = biological target: T1, heat-denatured BSA (Bos taurus, UniProt P02769); test: Turbidity (OD550) measurement and Hill plot analysis of peptides mixed with heat-denatured BSA reagent; format: binding, bovine; settings: for change in OD550 with increasing peptide concentration: peptide mixed with heat-denatured BSA, final 0.2 w/v %; for Hill coefficient n: Example 5, peptide 0 to 80 μM
T1 construct: purchased Sigma-Aldrich
T1 sequence (P02769 25-607): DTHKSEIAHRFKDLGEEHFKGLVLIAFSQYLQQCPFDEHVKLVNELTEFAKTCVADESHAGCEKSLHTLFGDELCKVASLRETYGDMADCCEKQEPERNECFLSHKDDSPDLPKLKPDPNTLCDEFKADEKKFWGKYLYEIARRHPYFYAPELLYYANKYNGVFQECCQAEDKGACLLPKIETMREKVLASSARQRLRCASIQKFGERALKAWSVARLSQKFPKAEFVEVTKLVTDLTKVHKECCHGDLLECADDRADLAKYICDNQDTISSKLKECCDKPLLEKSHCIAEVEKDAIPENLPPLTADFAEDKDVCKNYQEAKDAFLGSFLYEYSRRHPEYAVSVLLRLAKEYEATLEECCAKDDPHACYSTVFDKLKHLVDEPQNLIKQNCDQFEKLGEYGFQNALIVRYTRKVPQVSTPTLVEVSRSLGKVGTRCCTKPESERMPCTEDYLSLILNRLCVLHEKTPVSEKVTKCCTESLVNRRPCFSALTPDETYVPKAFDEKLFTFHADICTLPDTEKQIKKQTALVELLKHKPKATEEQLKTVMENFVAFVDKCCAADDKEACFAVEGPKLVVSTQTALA
Description: A partial dynorphin A peptide consisting of amino acids of positions 1 to 13 of dynorphin A (SEQ ID NO: 2; Peptide Institute, Inc.) was used as the basic peptide of interest. A neutral peptide, α-endorphin (SEQ ID NO: 3; Peptide Institute, Inc.) was also used as a comparative peptide of interest. These peptides were dissolved in ultrapure water to prepare samples containing respective peptides (1.0 mg/ml).
(§1) The denatured BSA solution prepared in the above (1) (50 μl) was mixed with the respective samples prepared in (2) followed by addition of ultrapure water to prepare a total volume of 250 μl of mixed solutions containing respective peptides. In the preparation, the sample was mixed so as to obtain a final concentration of the respective peptides in the mixed solutions of 0 to 150 μM.
The thus-prepared mixed solutions were measured for OD550 in the similar manner as Example 1.
A fragment of kininogen (positions 439 to 457 (SEQ ID NO: 4); synthesized at Biologica Co.) and a fragment of ITIH4 (positions 611 to 642 (SEQ ID NO: 5); synthesized at Biologica Co.) which were known as cancer metastasis markers were used as basic peptides of interest. These peptides were dissolved in ultrapure water to prepare samples containing respective peptides (1.0 mg/ml).
as §1, with “80” for “150”
The thus-prepared mixed solutions were measured for OD550 in the similar manner as Example 1. The Kd value and Hill coefficient were calculated for the respective samples.
Besides a basic peptide, to be studied for comparison, a neutral peptide Fibrinogen α (SEQ ID NO: 6; Biological Co.) and acidic peptides C3f (SEQ ID NO: 7; Biologica Co.) and Factor XIII (SEQ ID NO: 8; Biologica Co.) were prepared. These peptides were dissolved in ultrapure water to prepare samples containing respective peptides (1.0 mg/ml).
as §1, with “solutions containing the respective peptides.” for “solutions containing respective peptides.”, “was mixed with the heat-denatured BSA solution so as” for “was mixed so as”, “0 to 80 μM.” for “0 to 150 μM.”

[1] = biological target: T2, partial ACTH peptide (positions 1 to 24 of ACTH) (Homo sapiens, UniProt P01189); test: Turbidity (OD550) measurement and Hill plot analysis of albumin reagents mixed with partial ACTH peptide; format: binding; settings: for change in OD550 with increasing partial ACTH peptide concentration: albumin reagent mixed with partial ACTH peptide
T2 construct: consisting of the amino acids of positions 1 to 24 of ACTH
T2 sequence (P01189 138-161): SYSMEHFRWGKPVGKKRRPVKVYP
Description: BSA (Sigma-Aldrich) was dissolved in Milli-Q® water (Millipore) to prepare a BSA solution (1.0 w/v %). The BSA solution was divided into two and one was designated as a non-denatured BSA solution and the other was autoclaved at 110° C. for 15 minutes to obtain a heat-denatured BSA solution.
A partial ACTH peptide (Peptide Institute, Inc.) consisting of the amino acids of positions 1 to 24 of ACTH was used as the basic peptide of interest. The peptide was dissolved in ultrapure water to prepare a sample containing the basic peptide of interest (1.0 mg/ml).
The heat-denatured BSA solution prepared in the above (1) (50 μl) was mixed with the sample prepared in (2) followed by addition of ultrapure water to prepare a total volume of 250 μl of a mixed solution (final concentration of heat-denatured BSA: 0.2 w/v %). In this preparation, the sample was mixed so as to obtain a final concentration of the partial ACTH peptide in the mixed solution of 0 to 150 μM. A comparative mixed solution was also prepared in the similar manner except that the non-denatured BSA solution was used instead of the heat-denatured BSA solution.
The thus-prepared mixed solutions were measured for absorbance at the wavelength of 550 nm (OD550) in a spectrophotometer UV-2500PC (Shimadzu Corporation). The obtained results were subjected to Hill plot analysis with KaleidaGraph (HULINKS, Inc.) to calculate the values of Kd and the Hill coefficient of heat-denatured BSA and non-denatured BSA.
BSA (Sigma-Aldrich) was dissolved in Milli-Q® water (Millipore) to prepare a BSA solution (1.0 w/v %). The BSA solution was divided into five aliquots among which one was designated as a non-denatured BSA solution (heat denaturation period: 0 min) and the rest of four were heated in an autoclave at 110° C. for 5, 15, 60 and 120 min, respectively, to obtain heat-denatured BSA solutions.
The Kd value and Hill coefficient of BSA at respective heat denaturation periods were calculated. […]
The Kd value and Hill coefficient were calculated for the mixed solutions. […]

[2] = Example 1, final BSA 0.2 w/v %, peptide 0 to 150 μM, OD550 Hill plot
[3] = Example 6, albumin autoclaved at 115° C. for 15 minutes, final 0.2 w/v %, peptide 0 to 80 μM

Molecule: CC[C@H](C)[C@H](NC(=O)[C@H](CCCNC(=N)N)NC(=O)[C@H](CCCNC(=N)N)NC(=O)[C@H](CC(C)C)NC(=O)[C@H](Cc1ccccc1)NC(=O)CNC(=O)CNC(=O)[C@@H](N)Cc1ccc(O)cc1)C(=O)N[C@@H](CCCNC(=N)N)C(=O)N1CCC[C@H]1C(=O)N[C@@H](CCCCN)C(=O)N[C@@H](CC(C)C)C(=O)N[C@@H](CCCCN)C(=O)O [partial dynorphin A peptide]
Kd (heat-denatured BSA): 30 µM | Hill coefficient (heat-denatured BSA; Example 4, peptide 0 to 150 μM, OD550 Hill plot): 8 | change in OD550 with increasing peptide concentration (heat-denatured BSA): increased in a concentration dependent manner

Molecule: C3f: acidic peptide C3f (SEQ ID NO: 7) (HWESASLL; listed as Homo sapiens)
change in OD550 with increasing peptide concentration (heat-denatured BSA): no change in OD550

Molecule: Fibrinogen α: neutral peptide Fibrinogen α (SEQ ID NO: 6) (DEAGSEADHEGTHSTKRGHAKSRPV; listed as Homo sapiens)
change in OD550 with increasing peptide concentration (heat-denatured BSA): no change in OD550

Molecule: GESRNRNVHSGSTFFKYYLQGAKIPKPEASFS [ITIH4 (611-642)]
Hill coefficient n (heat-denatured BSA; OD550 Hill plot): 9 | change in OD550 with increasing peptide concentration (heat-denatured BSA): increased in a peptide concentration dependent manner

Molecule: α-endorphin (YGGFMTSEKSQTPLVT; listed as Homo sapiens)
change in OD550 with increasing peptide concentration (heat-denatured BSA): no change in OD550

Further lines, with some results ahead:

change in OD550 with increasing peptide concentration (heat-denatured BSA): no change in OD550
Molecule: Factor XIII: acidic peptide Factor XIII (SEQ ID NO: 8) (AVPPNNSNAAEDDLPTVELQGVVPR; listed as Homo sapiens)

Hill coefficient n (heat-denatured BSA; OD550 Hill plot): 8 | change in OD550 with increasing peptide concentration (heat-denatured BSA): increased
Molecule: HNLGHGHKHERDQGHGHQR [Kininogen (439-457)]

Hill coefficient n [1, 2]: 1 | Kd [1, 2]: 290 µM | change in OD550 with increasing partial ACTH peptide concentration ([1]; listed as BSA solution that was heat-denatured for 0 min): not changed | Hill coefficient n ([1]; heat denaturation period 0 min): 1 | Kd ([1]; heat denaturation period 0 min): 290 µM
Molecule: Non-denatured BSA: BSA (Sigma-Aldrich) solution 1.0 w/v %, not heated; comparative reagent [reference compound]
change in OD550 with increasing partial ACTH peptide concentration [1]: significant change in the value of OD550 was not observed

Hill coefficient n [1, 3]: 3 | Kd [1, 3]: 67 µM | Hill coefficient n ([1]; Example 6, albumin autoclaved at 115° C. for 15 minutes, final 0.2 w/v %, peptide 0 to 80 μM, listed as heat-denatured OA): 11
B1: Heat-denatured OA: ovoalbumin solution (1.0 w/v %), pH 5 to 7, autoclaved at 115° C. for 15 minutes (protein)
chain: GSIGAASMEFCFDVFKELKVHHANENIFYCPIAIMSALAMVYLGAKDSTRTQINKVVRFDKLPGFGDSIEAQCGTSVNVHSSLRDILNQITKPNDVYSFSLASRLYAEERYPILPEYLQCVKELYRGGLEPINFQTAADQARELINSWVESQTNGIIRNVLQPSSVDSQTAMVLVNAIVFKGLWEKAFKDEDTQAMPFRVTEQESKPVQMMYQIGLFRVASMASEKMKILELPFASGTMSMLVLLPDEVSGLEQLESIINFEKLTEWTSSNVMEERKIKVYLPRMKMEEKYNLTSVLMAMGITDVFSSSANLSGISSAESLKISQAVHAAHAEINEAGREVVGSAEAGVDAASVSEEFRADHPFLFCIKHIATNAVLFFGRCVSP
change in OD550 with increasing partial ACTH peptide concentration [1]: increase in a manner dependent on the concentrations of the basic peptide
